We go through 19 molecules from publication PMC314469, “Protein Interaction Networks by Proteome Peptide Scanning” (PLoS Biology, 2004).

First the molecules themselves.
T1: Yfr024 SH3 (LSB3_YEAST), P43603
T1 chain: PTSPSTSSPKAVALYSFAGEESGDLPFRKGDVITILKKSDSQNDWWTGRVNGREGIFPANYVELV

T2: Rvs167 SH3 (RV167_YEAST), P39743
T2 chain: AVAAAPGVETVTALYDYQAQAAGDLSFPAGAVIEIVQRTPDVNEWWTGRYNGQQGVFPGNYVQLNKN

T3: Boi2 SH3 (BOI2_YEAST), P39969
T3 chain: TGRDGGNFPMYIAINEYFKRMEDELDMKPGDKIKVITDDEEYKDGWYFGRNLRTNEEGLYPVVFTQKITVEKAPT

T4: Yhr016c SH3 (YSC84_YEAST), P32793
T4 chain: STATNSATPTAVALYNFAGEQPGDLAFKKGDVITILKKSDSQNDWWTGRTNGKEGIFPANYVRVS

T5: Boi1 SH3 (BOI1_YEAST), P38041
T5 chain: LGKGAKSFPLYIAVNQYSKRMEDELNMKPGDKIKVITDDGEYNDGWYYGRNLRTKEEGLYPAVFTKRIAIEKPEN

B1: YMR280C 206-219 (peptide)
chain: GAPPPPPHKDHLSD
B2: YBR108W 657-670 (peptide)
chain: FQPPPKPFRRSQSS
B3: YEL011W 171-184 (peptide)
chain: FWNPENPYKFVHPR
B4: YGL130W 106-119 (peptide)
chain: FRFPRLPQKKKEEL
B5: YGR233C 862-875 (peptide)
chain: FPYPGNPLKIINYE
B6: YCR088W 393-406 (peptide)
chain: FSKPQEPVKAEEAE
B7: YPR161C 424-437 (peptide)
chain: GAIPRGPKKDDASF
B8: YNL047C 421-434 (peptide)
chain: FVPPNLPMRRFKEI
B9: YML119W 56-69 (peptide)
chain: FYYPESPTKNLRPR
B10: YBR138C 124-137 (peptide)
chain: GAKPKIPSKLYQSV
B11: YOR034C 343-356 (peptide)
chain: FVLPSLPRKNTYKV
B12: YGR065C 310-323 (peptide)
chain: FVIPGVPSKSYSLF
B13: YJL155C 176-189 (peptide)
chain: FYEPLDPQKDKDMT
B14: YDR517W 316-329 (peptide)
chain: FTAPPVPTKKKSKN
B15: YOR086C 892-905 (peptide)
chain: FVSPRIPSRIVKNG
B16: YEL056W 193-206 (peptide)
chain: GGDPTKPVRTWNDL
B17: YGR170W 91-104 (peptide)
chain: GAPPTTPSRPRTTT
B18: YJR054W 476-489 (peptide)
chain: FREPDLPRKGLLED
B19: YPL084W 731-744 (peptide)
chain: GGPPLLPQKSAAFQ

The first experiment addresses T1, Yfr024 SH3 (LSB3_YEAST), P43603. In words: SPOT array.
In turn, B1 returned a normalised SPOT signal, Boehringer light units (BLU); mean over the file's lines of this peptide of 47.2.

The molecule B2 gave a normalised SPOT signal, Boehringer light units (BLU); mean over the file's lines of this peptide of 45100.

B3 gave a normalised SPOT signal, Boehringer light units (BLU); mean over the file's lines of this peptide of 524.

Take B4: the normalised SPOT signal, Boehringer light units (BLU); mean over the file's lines of this peptide was 19500.

As for B5, the normalised SPOT signal, Boehringer light units (BLU); mean over the file's lines of this peptide was determined as 49.4.

As to B6, the normalised SPOT signal, Boehringer light units (BLU); mean over the file's lines of this peptide came out at 276.

In the case of B7, the normalised SPOT signal, Boehringer light units (BLU); mean over the file's lines of this peptide stood at 225.

B8: the normalised SPOT signal, Boehringer light units (BLU); mean over the file's lines of this peptide was 25900.

Take B9: the normalised SPOT signal, Boehringer light units (BLU); mean over the file's lines of this peptide came out at 292.

Consider B10, for which the normalised SPOT signal, Boehringer light units (BLU); mean over the file's lines of this peptide is 313.

Regarding B11, the normalised SPOT signal, Boehringer light units (BLU); mean over the file's lines of this peptide is 4240.

As for B12, the normalised SPOT signal, Boehringer light units (BLU); mean over the file's lines of this peptide was 44.7.

B13 displayed a normalised SPOT signal, Boehringer light units (BLU); mean over the file's lines of this peptide of 121.

Turning to B14, the normalised SPOT signal, Boehringer light units (BLU); mean over the file's lines of this peptide is 9160.

Consider B15, for which the normalised SPOT signal, Boehringer light units (BLU); mean over the file's lines of this peptide is 34100.

In the case of B16, the normalised SPOT signal, Boehringer light units (BLU); mean over the file's lines of this peptide amounted to 203.

Consider B17, for which the normalised SPOT signal, Boehringer light units (BLU); mean over the file's lines of this peptide amounted to 13900.

Molecule B18 had a normalised SPOT signal, Boehringer light units (BLU); mean over the file's lines of this peptide of 1350.

Regarding B19, the normalised SPOT signal, Boehringer light units (BLU); mean over the file's lines of this peptide is 7090.

The next experiment has as its target T2, Rvs167 SH3 (RV167_YEAST), P39743. In words: SPOT array.
With B1, the normalised SPOT signal, Boehringer light units (BLU); mean over the file's lines of this peptide came to 75.6.

The molecule B2 yielded a normalised SPOT signal, Boehringer light units (BLU); mean over the file's lines of this peptide of 8580.

As for B3, the normalised SPOT signal, Boehringer light units (BLU); mean over the file's lines of this peptide is 67.7.

In turn, B4 gave a normalised SPOT signal, Boehringer light units (BLU); mean over the file's lines of this peptide of 1200.

B5 displayed a normalised SPOT signal, Boehringer light units (BLU); mean over the file's lines of this peptide of 87.

B6: the normalised SPOT signal, Boehringer light units (BLU); mean over the file's lines of this peptide was 27.2.

Turning to B7, the normalised SPOT signal, Boehringer light units (BLU); mean over the file's lines of this peptide is 48.1.

As to B8, the normalised SPOT signal, Boehringer light units (BLU); mean over the file's lines of this peptide turned out to be 11800.

Take B9: the normalised SPOT signal, Boehringer light units (BLU); mean over the file's lines of this peptide came out at 28.6.

In turn, B10 returned a normalised SPOT signal, Boehringer light units (BLU); mean over the file's lines of this peptide of 42.7.

The molecule B11 displayed a normalised SPOT signal, Boehringer light units (BLU); mean over the file's lines of this peptide of 16.4.

B12 came in with a normalised SPOT signal, Boehringer light units (BLU); mean over the file's lines of this peptide of 0.

On to B13, for which the normalised SPOT signal, Boehringer light units (BLU); mean over the file's lines of this peptide was 14.1.

B14 gave a normalised SPOT signal, Boehringer light units (BLU); mean over the file's lines of this peptide of 86.4.

B15 displayed a normalised SPOT signal, Boehringer light units (BLU); mean over the file's lines of this peptide of 10100.

For the molecule B16, the normalised SPOT signal, Boehringer light units (BLU); mean over the file's lines of this peptide was found to be 16.4.

The molecule B17 came in with a normalised SPOT signal, Boehringer light units (BLU); mean over the file's lines of this peptide of 366.

Consider B18, for which the normalised SPOT signal, Boehringer light units (BLU); mean over the file's lines of this peptide came out at 33.2.

With B19, the normalised SPOT signal, Boehringer light units (BLU); mean over the file's lines of this peptide came to 28.4.

The target of the next experiment is T3, Boi2 SH3 (BOI2_YEAST), P39969. Nature of the experiment: SPOT array.
For B1, the normalised SPOT signal, Boehringer light units (BLU); mean over the file's lines of this peptide is 17.2.

In the case of B2, the normalised SPOT signal, Boehringer light units (BLU); mean over the file's lines of this peptide worked out at 308.

B3 gave a normalised SPOT signal, Boehringer light units (BLU); mean over the file's lines of this peptide of 55.6.

With B4, the normalised SPOT signal, Boehringer light units (BLU); mean over the file's lines of this peptide is 172.

Take B5: the normalised SPOT signal, Boehringer light units (BLU); mean over the file's lines of this peptide came to 39.

Molecule B6 returned a normalised SPOT signal, Boehringer light units (BLU); mean over the file's lines of this peptide of 23.9.

With B7, the normalised SPOT signal, Boehringer light units (BLU); mean over the file's lines of this peptide came to 5.7.

As for B8, the normalised SPOT signal, Boehringer light units (BLU); mean over the file's lines of this peptide stood at 160.

Regarding B9, the normalised SPOT signal, Boehringer light units (BLU); mean over the file's lines of this peptide worked out at 44.1.

B10 displayed a normalised SPOT signal, Boehringer light units (BLU); mean over the file's lines of this peptide of 76.3.

As for B11, the normalised SPOT signal, Boehringer light units (BLU); mean over the file's lines of this peptide turned out to be 20.4.

The molecule B12 came in with a normalised SPOT signal, Boehringer light units (BLU); mean over the file's lines of this peptide of 48.3.

B13 showed a normalised SPOT signal, Boehringer light units (BLU); mean over the file's lines of this peptide of 19.8.

In turn, B14 registered a normalised SPOT signal, Boehringer light units (BLU); mean over the file's lines of this peptide of 44.8.

The molecule B15 yielded a normalised SPOT signal, Boehringer light units (BLU); mean over the file's lines of this peptide of 1080.

Molecule B16 registered a normalised SPOT signal, Boehringer light units (BLU); mean over the file's lines of this peptide of 42.7.

In turn, B17 displayed a normalised SPOT signal, Boehringer light units (BLU); mean over the file's lines of this peptide of 78.2.

For the molecule B18, the normalised SPOT signal, Boehringer light units (BLU); mean over the file's lines of this peptide was 41.4.

In the case of B19, the normalised SPOT signal, Boehringer light units (BLU); mean over the file's lines of this peptide amounted to 2.

The next experiment addresses T4, Yhr016c SH3 (YSC84_YEAST), P32793. Nature of the experiment: SPOT array.
The molecule B1 displayed a normalised SPOT signal, Boehringer light units (BLU); mean over the file's lines of this peptide of 154.

B2 returned a normalised SPOT signal, Boehringer light units (BLU); mean over the file's lines of this peptide of 51000.

On to B3, for which the normalised SPOT signal, Boehringer light units (BLU); mean over the file's lines of this peptide worked out at 248.

Regarding B4, the normalised SPOT signal, Boehringer light units (BLU); mean over the file's lines of this peptide turned out to be 1370.

As to B5, the normalised SPOT signal, Boehringer light units (BLU); mean over the file's lines of this peptide turned out to be 0.

B6: the normalised SPOT signal, Boehringer light units (BLU); mean over the file's lines of this peptide worked out at 773.

B7: the normalised SPOT signal, Boehringer light units (BLU); mean over the file's lines of this peptide is 236.

As for B8, the normalised SPOT signal, Boehringer light units (BLU); mean over the file's lines of this peptide was determined as 23200.

For B9, the normalised SPOT signal, Boehringer light units (BLU); mean over the file's lines of this peptide was 36.3.

B10 gave a normalised SPOT signal, Boehringer light units (BLU); mean over the file's lines of this peptide of -0.

Molecule B11 returned a normalised SPOT signal, Boehringer light units (BLU); mean over the file's lines of this peptide of 75.7.

B12: the normalised SPOT signal, Boehringer light units (BLU); mean over the file's lines of this peptide turned out to be 66.7.

Regarding B13, the normalised SPOT signal, Boehringer light units (BLU); mean over the file's lines of this peptide amounted to 129.

For the molecule B14, the normalised SPOT signal, Boehringer light units (BLU); mean over the file's lines of this peptide turned out to be 216.

B15 came in with a normalised SPOT signal, Boehringer light units (BLU); mean over the file's lines of this peptide of 9870.

B16 returned a normalised SPOT signal, Boehringer light units (BLU); mean over the file's lines of this peptide of 170.

In turn, B17 returned a normalised SPOT signal, Boehringer light units (BLU); mean over the file's lines of this peptide of 9930.

Molecule B18 registered a normalised SPOT signal, Boehringer light units (BLU); mean over the file's lines of this peptide of 116.

Turning to B19, the normalised SPOT signal, Boehringer light units (BLU); mean over the file's lines of this peptide was found to be 119.

The target of another experiment is T5, Boi1 SH3 (BOI1_YEAST), P38041. In words: SPOT array.
B1 returned a normalised SPOT signal, Boehringer light units (BLU); mean over the file's lines of this peptide of 104.

B2: the normalised SPOT signal, Boehringer light units (BLU); mean over the file's lines of this peptide came to 800.

Molecule B3 had a normalised SPOT signal, Boehringer light units (BLU); mean over the file's lines of this peptide of 169.

Consider B4, for which the normalised SPOT signal, Boehringer light units (BLU); mean over the file's lines of this peptide worked out at 105.

In turn, B5 returned a normalised SPOT signal, Boehringer light units (BLU); mean over the file's lines of this peptide of 125.

B6 came in with a normalised SPOT signal, Boehringer light units (BLU); mean over the file's lines of this peptide of 76.7.

In the case of B7, the normalised SPOT signal, Boehringer light units (BLU); mean over the file's lines of this peptide is 94.3.

B8 came in with a normalised SPOT signal, Boehringer light units (BLU); mean over the file's lines of this peptide of 11000.

In turn, B9 returned a normalised SPOT signal, Boehringer light units (BLU); mean over the file's lines of this peptide of 867.

B10 displayed a normalised SPOT signal, Boehringer light units (BLU); mean over the file's lines of this peptide of 68.4.

B11 had a normalised SPOT signal, Boehringer light units (BLU); mean over the file's lines of this peptide of 96.3.

The molecule B12 had a normalised SPOT signal, Boehringer light units (BLU); mean over the file's lines of this peptide of 94.

Consider B13, for which the normalised SPOT signal, Boehringer light units (BLU); mean over the file's lines of this peptide stood at 71.3.

Regarding B14, the normalised SPOT signal, Boehringer light units (BLU); mean over the file's lines of this peptide was determined as 346.

B15 yielded a normalised SPOT signal, Boehringer light units (BLU); mean over the file's lines of this peptide of 898.

Molecule B16 came in with a normalised SPOT signal, Boehringer light units (BLU); mean over the file's lines of this peptide of 31.1.

B17 displayed a normalised SPOT signal, Boehringer light units (BLU); mean over the file's lines of this peptide of 0.

Regarding B18, the normalised SPOT signal, Boehringer light units (BLU); mean over the file's lines of this peptide was determined as 133.

B19 came in with a normalised SPOT signal, Boehringer light units (BLU); mean over the file's lines of this peptide of 128.
